# From patent US20250281611A1 (BIOSCEPTRE AUST, published 2025)
# B1: CD33 BRIDGE variant B26 (Fab, V domains shown)
# VH: QVQLVQSGAEVKKPGSSVKVSCKASGYTFTDYNMHWVRQAPGQGLEWIGYIYPYNGGTGYNQKFKSKATITADESTNTAYMELSSLRSEDTAVYYCARGRPAMDYWGQGTLVTVSS
# VL: DIQMTQSPSSLSASVGDRVTITCRASESVDNYGISFMNWFQQKPGKAPKLLIYAASNQGSGVPSRFSGSGSGTDFTLTISSLQPDDFATYYCQQSKEVPWTFGQGTKVEIKR
# notes: Lintuzumab-based Fab bridging molecule
# B2: CD33 BRIDGE variant B23 (Fab)
# light: DFPGHNYTTRNILPGLNITSTFHKTSGSGKGSEPKSSDKTHTDIQMTQSPSSLSASVGDRVTITCRASESVDNYGISFMNWFQQKPGKAPKLLIYAASNQGSGVPSRFSGSGSGTDFTLTISSLQPDDFATYYCQQSKEVPWTFGQGTKVEIKRTVAAPSVFIFPPSDEQLKSGTASVVCLLNNFYPREAKVQWKVDNALQSGNSQESVTEQDSKDSTYSLSSTLTLSKADYEKHKVYACEVTHQGLSSPVTKSFNRGECHHHHHH
# heavy: QVQLVQSGAEVKKPGSSVKVSCKASGYTFTDYNMHWVRQAPGQGLEWIGYIYPYNGGTGYNQKFKSKATITADESTNTAYMELSSLRSEDTAVYYCARGRPAMDYWGQGTLVTVSSASTKGPSVFPLAPSSKSTSGGTAALGCLVKDYFPEPVTVSWNSGALTSGVHTFPAVLQSSGLYSLSSVVTVPSSSLGTQTYICNVNHKPSNTKVDKKVEPKSCHHHHHH
# notes: as for B1
# B3: CD33 BRIDGE variant B31 (Fab)
# light: DFPGHNYTTRNILPGLNITSEPKSSDKTHTGGGGSDIQMTQSPSSLSASVGDRVTITCRASESVDNYGISFMNWFQQKPGKAPKLLIYAASNQGSGVPSRFSGSGSGTDFTLTISSLQPDDFATYYCQQSKEVPWTFGQGTKVEIKRTVAAPSVFIFPPSDEQLKSGTASVVCLLNNFYPREAKVQWKVDNALQSGNSQESVTEQDSKDSTYSLSSTLTLSKADYEKHKVYACEVTHQGLSSPVTKSFNRGECHHHHHH
# heavy: B2 heavy
# notes: as for B1
# B4: CD33 BRIDGE variant B27 (Fab)
# light: DFPGHNYTTRNILPGLNITSGGGGSEPKSSDKTHTGSDIQMTQSPSSLSASVGDRVTITCRASESVDNYGISFMNWFQQKPGKAPKLLIYAASNQGSGVPSRFSGSGSGTDFTLTISSLQPDDFATYYCQQSKEVPWTFGQGTKVEIKRTVAAPSVFIFPPSDEQLKSGTASVVCLLNNFYPREAKVQWKVDNALQSGNSQESVTEQDSKDSTYSLSSTLTLSKADYEKHKVYACEVTHQGLSSPVTKSFNRGECHHHHHH
# heavy: B2 heavy
# notes: as for B1
# B5: CD33 BRIDGE variant B34 (Fab)
# light: DFPGHNYTTRNILPGLNITSTFHKTSGSGKEPKSSDKTHTGGGGSDIQMTQSPSSLSASVGDRVTITCRASESVDNYGISFMNWFQQKPGKAPKLLIYAASNQGSGVPSRFSGSGSGTDFTLTISSLQPDDFATYYCQQSKEVPWTFGQGTKVEIKRTVAAPSVFIFPPSDEQLKSGTASVVCLLNNFYPREAKVQWKVDNALQSGNSQESVTEQDSKDSTYSLSSTLTLSKADYEKHKVYACEVTHQGLSSPVTKSFNRGECHHHHHH
# heavy: B2 heavy
# notes: as for B1
# B6: CD33 BRIDGE variant B30 (Fab)
# light: DFPGHNYTTRNILPGLNITSTFHKTSGSGKGGGGSEPKSSDKTHTGSDIQMTQSPSSLSASVGDRVTITCRASESVDNYGISFMNWFQQKPGKAPKLLIYAASNQGSGVPSRFSGSGSGTDFTLTISSLQPDDFATYYCQQSKEVPWTFGQGTKVEIKRTVAAPSVFIFPPSDEQLKSGTASVVCLLNNFYPREAKVQWKVDNALQSGNSQESVTEQDSKDSTYSLSSTLTLSKADYEKHKVYACEVTHQGLSSPVTKSFNRGECHHHHHH
# heavy: B2 heavy
# notes: as for B1
# B7: CD33 BRIDGE variant B24 (Fab)
# light: DFPGHNYTTRNILPGLNITSTFHKTSGSGKGGGGSEPKSSDKTHTDIQMTQSPSSLSASVGDRVTITCRASESVDNYGISFMNWFQQKPGKAPKLLIYAASNQGSGVPSRFSGSGSGTDFTLTISSLQPDDFATYYCQQSKEVPWTFGQGTKVEIKRTVAAPSVFIFPPSDEQLKSGTASVVCLLNNFYPREAKVQWKVDNALQSGNSQESVTEQDSKDSTYSLSSTLTLSKADYEKHKVYACEVTHQGLSSPVTKSFNRGECHHHHHH
# heavy: B2 heavy
# notes: as for B1
# B8: CD33 BRIDGE variant B32 (Fab)
# light: DFPGHNYTTRNILPGLNITSGSEPKSSDKTHTGGGGSDIQMTQSPSSLSASVGDRVTITCRASESVDNYGISFMNWFQQKPGKAPKLLIYAASNQGSGVPSRFSGSGSGTDFTLTISSLQPDDFATYYCQQSKEVPWTFGQGTKVEIKRTVAAPSVFIFPPSDEQLKSGTASVVCLLNNFYPREAKVQWKVDNALQSGNSQESVTEQDSKDSTYSLSSTLTLSKADYEKHKVYACEVTHQGLSSPVTKSFNRGECHHHHHH
# heavy: B2 heavy
# notes: as for B1
# B9: CD33 BRIDGE variant B29 (Fab)
# light: DFPGHNYTTRNILPGLNITSTFHKTSGSGKGSEPKSSDKTHTGSDIQMTQSPSSLSASVGDRVTITCRASESVDNYGISFMNWFQQKPGKAPKLLIYAASNQGSGVPSRFSGSGSGTDFTLTISSLQPDDFATYYCQQSKEVPWTFGQGTKVEIKRTVAAPSVFIFPPSDEQLKSGTASVVCLLNNFYPREAKVQWKVDNALQSGNSQESVTEQDSKDSTYSLSSTLTLSKADYEKHKVYACEVTHQGLSSPVTKSFNRGECHHHHHH
# heavy: B2 heavy
# notes: as for B1
# B10: CD33 BRIDGE variant B33 (Fab)
# light: DFPGHNYTTRNILPGLNITSGGGGSEPKSSDKTHTGGGGSDIQMTQSPSSLSASVGDRVTITCRASESVDNYGISFMNWFQQKPGKAPKLLIYAASNQGSGVPSRFSGSGSGTDFTLTISSLQPDDFATYYCQQSKEVPWTFGQGTKVEIKRTVAAPSVFIFPPSDEQLKSGTASVVCLLNNFYPREAKVQWKVDNALQSGNSQESVTEQDSKDSTYSLSSTLTLSKADYEKHKVYACEVTHQGLSSPVTKSFNRGECHHHHHH
# heavy: B2 heavy
# notes: as for B1
# B11: CD33 BRIDGE variant B28 (Fab)
# light: DFPGHNYTTRNILPGLNITSTFHKTSGSGKEPKSSDKTHTGSDIQMTQSPSSLSASVGDRVTITCRASESVDNYGISFMNWFQQKPGKAPKLLIYAASNQGSGVPSRFSGSGSGTDFTLTISSLQPDDFATYYCQQSKEVPWTFGQGTKVEIKRTVAAPSVFIFPPSDEQLKSGTASVVCLLNNFYPREAKVQWKVDNALQSGNSQESVTEQDSKDSTYSLSSTLTLSKADYEKHKVYACEVTHQGLSSPVTKSFNRGECHHHHHH
# heavy: B2 heavy
# notes: as for B1
# Target: T1, nfP2X7 CAR 1
# T1 construct: Expressed on T cells with truncated EGFR as marker gene; also called anti-nfP2X7 receptor CAR 1; nfP2X7 targeted CAR on EGFR+ T cells
# Assay: flow cytometry, CAR T cells, anti-His-FITC, EGFR+ MFI over background 0.4
# Method: (§1) nfP2X₇ CAR T cells were incubated with different BRiDGE variants at saturating concentrations. […] The MFI intensity correlates with the number of secondary bound antibodies bound to the BRiDGEs that are only detected if they are bound to the CAR T cells. EGFR was used as a marker gene to detect the CAR expression. Thus, the EGFR+ T cell population was defined as the CAR expressing cells and the EGFR− T cell population was defined as the CAR negative subset. MFI: median fluorescence intensity. EGFR: epidermal growth factor receptor. BLItz: Bio-Layer interferometry (BLI) technology using HIS-tag identification tips. HIS-tag MFI Ratio: relative index that is calculated by the testing condition MFI divided by the control MFI, which corresponds to the MFI measured on EGFR+ T cells (defined as CAR positive cells) divided by the MFI measured on the EGFR− T cells (defined as CAR negative cells). […] The higher the MFIR, the stronger the binding.
row,HisTag MFI Ratio (background 0.4),Binder
1,3.1,B1
2,4.3,B2
3,3.4,B3
4,3,B4
5,3.3,B5
6,4.1,B6
7,4.6,B7
8,4,B8
9,4.3,B9
10,4.2,B10
11,4,B11

# Target: T1, nfP2X7 CAR 1
# Assay: flow cytometry, nfP2X7 CAR T cells (EGFR+), anti-His-FITC detection
# Method: as §1
row,MFI HisTag FITC in EGFR+ Population,Binder
1,1.22,B1
2,1.71,B2
3,1.34,B3
4,1.2,B4
5,1.31,B5
6,1.63,B6
7,1.82,B7
8,1.59,B8
9,1.73,B9
10,1.69,B10
11,1.58,B11

# Target: T1, nfP2X7 CAR 1
# Assay: flow cytometry, CAR T cells, anti-His-FITC, EGFR+ over EGFR- cells
# Method: as §1
row,HisTag MFI Ratio of EGFR+/EGFR-,Binder
1,2.8,B1
2,3.4,B2
3,3,B3
4,2.8,B4
5,3,B5
6,3.3,B6
7,3.5,B7
8,3.3,B8
9,3.4,B9
10,3.4,B10
11,3.2,B11

# Target: T2, CD33 (UniProt P20138 18-364, limits assumed)
# T2 construct: whole, on cells; also called Siglec-3; CD33 on MOLM-13 cells
# Assay: flow cytometry, MOLM-13 cells, anti-His-FITC detection
# Method: (§2) MOLM-13 cells were incubated with different CD33 BRIDGE variants at saturating concentrations. […] The MFI intensity correlates with the number of secondary antibodies bound to the CD33 BRIDGE variants that are only detected if they are bound to the MOLM-13 cells. MFI: median fluorescence intensity. BLItz: Bio-Layer interferometry (BLI) technology using HIS-tag identification tips. […] The higher the MFIR, the stronger the binding.
# T2 sequence (P20138 18-364 limits assumed): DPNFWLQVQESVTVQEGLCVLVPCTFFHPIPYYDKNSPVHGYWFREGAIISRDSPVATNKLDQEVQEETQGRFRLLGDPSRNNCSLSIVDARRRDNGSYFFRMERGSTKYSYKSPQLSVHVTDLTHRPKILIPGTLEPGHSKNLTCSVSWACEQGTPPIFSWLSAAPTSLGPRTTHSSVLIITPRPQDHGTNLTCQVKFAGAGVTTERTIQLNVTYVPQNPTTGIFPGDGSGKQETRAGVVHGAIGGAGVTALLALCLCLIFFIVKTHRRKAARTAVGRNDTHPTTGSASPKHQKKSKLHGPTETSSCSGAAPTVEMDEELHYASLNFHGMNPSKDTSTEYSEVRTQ
row,MFI HisTag FITC,Binder
1,5.75,B1
2,6.82,B2
3,7.09,B3
4,5.55,B4
5,6.98,B5
6,6.29,B6
7,6.25,B7
8,6.69,B8
9,5.38,B9
10,6.96,B10
11,6.33,B11

# Target: T2, CD33
# Assay: flow cytometry, MOLM-13 cells, anti-His-FITC detection, ratio to no bridge
# Method: as §2
row,MFIR HisTag FITC,Binder
1,8.58,B1
2,10.2,B2
3,10.6,B3
4,8.28,B4
5,10.4,B5
6,9.39,B6
7,9.33,B7
8,9.99,B8
9,8.03,B9
10,10.4,B10
11,9.45,B11
